The values below come from article PMC3023227 (2010).

What is called Kd is the concentration at which binding is half-saturated. A lower Kd goes with higher affinity.

Where no end group is shown, it is not given here. [ ]: non-standard residue; d: D form. pY = N[C@@H](Cc1ccc(OP(=O)(O)O)cc1)C(=O)O

The target of this assay is GAPDH (Oryctolagus cuniculus, UniProt P46406). Nature of the assay: fluorescence titration.
Chain of GAPDH (P46406 whole entry): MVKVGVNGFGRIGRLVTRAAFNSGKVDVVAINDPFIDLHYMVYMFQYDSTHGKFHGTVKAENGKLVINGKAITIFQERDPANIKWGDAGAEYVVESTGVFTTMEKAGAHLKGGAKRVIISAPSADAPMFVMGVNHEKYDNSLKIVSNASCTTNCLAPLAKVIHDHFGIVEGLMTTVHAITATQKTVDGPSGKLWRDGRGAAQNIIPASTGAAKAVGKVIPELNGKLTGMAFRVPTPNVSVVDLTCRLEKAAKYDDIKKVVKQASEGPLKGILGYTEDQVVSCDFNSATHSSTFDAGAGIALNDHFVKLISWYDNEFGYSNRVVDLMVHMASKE
Molecule CLDADDAKATFDEEEGRDEYDEVAMPV [AE1 C-terminal peptide AE1C-Y904] had a Kd of 3200 nM.

Regarding CLDADDAKATFDEEEGRDE[pY]DEVAMPV [AE1 C-terminal peptide AE1C-pY904], binding was put at a Kd of 2600 nM.

Turning to LIFRNVELQCLDADDAKATFDEEEGRDEYDEVAMPV [AE1 C-terminal domain (AE1C-WT) 876-911], the dissociation constant Kd is 2300 nM.
